Measured values reported in US20160362487A1 (Regeneron, published 2016).
Residue numbers refer to the chain shown, from its start. Names and notes keep the numbering of the source.

B1: H4H9640P (antibody, human IgG4, V domains shown)
VH: QVQLQESGPGLVKPSETLSLTCTVSGGSISSYYWSWIRQPPGKGLELIGYIYYSGSTNYNPSLKSRVTISVDTSKNHFSLKLSSVTAADTAVYYCARSQYTSSWYGSFDIWGQGTMVTVSS
VL: DIQMTQSPSSVSASVGDRVTITCRASQGISTWLAWFQQKPGKAPKLLIYAASTLQGGVPSRFSGSGSGPEFTLTISSLQPEDFATYYCQQANSFPWTFGQGTKVEIK
notes: Human IgG4 Fc (H4H)
B2: H4H9659P (antibody, human IgG4, V domains shown)
VH: QVQLVQSGAEVKKPGASVKVSCKASGYTFNSYGISWVRQAPGQGLEWMGWISSHNGNSHYVQKFQGRVSMTTDTSTSTAYMELRSLRSDDTAVYYCARHSYTTSWYGGFDYWGQGTLVTVSS
VL: B1 VL with I29F, T31S, F36Y, K45Q, T53S, G56S, P69S, E70D, W96L, Q100G
notes: Human IgG4 Fc (H4H)
B3: H4H9660P (antibody, human IgG4, V domains shown)
VH: EVQLVESGGGLVQPGGSLRLSCAASGITLSSYGMSWVRQAPGKGLEWVASIFGSGGGPYYADSVKGRFTMSRDNSKNTLYLQMNSLRAEDTAVYYCAKDRYSGSYYGGFDYWGRGTLVTVSS
VL: DIQMTQSPSSVSASVGDRVTITCRASQGITSWLAWYQQKPGKAPTLLIYAASSLQTGVPSRFSGSGSGTDFTLTISSLQPEHFATYYCQQANSFPPTFGGGTKVEIK
notes: Human IgG4 Fc (H4H)
B4: H4H9662P (antibody, V domains shown)
VH: EVQLVESGGGLVQPGGSLRLSCAASGFTFSSYALTWVRQAPGKGLEWVSFISGSGGRPFYADSVKGRFTISRDNSKNMLYLQMNSLRAEDTAIYYCAKSLYTTSWYGGFDSWGQGTLVTVSS
VL: B3 VL with I29V, T30V, T45K, T56S, H82D, A91S, P96F, F98L, G100P, E105D
notes: Human IgG4 Fc (H4H)

The binders below were run against T1, biotinylated hIL-33 protein (R&D systems, Cat #3625-IL/CF) (human, UniProt O95760 112-270, biotinylated (sites not given)) (assay: competition ELISA, 30 pM biotin-hIL-33 on coated hST2-hFc).
T1 construct: Same commercial protein as m21, biotin-labelled; also called biotin-hIL-33
T1 sequence (looked up): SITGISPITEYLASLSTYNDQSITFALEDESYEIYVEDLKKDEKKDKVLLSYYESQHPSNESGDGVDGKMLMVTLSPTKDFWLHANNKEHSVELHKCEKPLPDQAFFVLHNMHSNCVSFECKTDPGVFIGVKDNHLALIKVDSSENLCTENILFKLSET
Method: (§1) The ability of anti-IL-33 antibodies to block either human IL-33 (hIL-33) or cynomologus monkey IL-33 binding to the human ST2 receptor was measured using a competition sandwich ELISA. […] The antibody/IL-33 mixtures were incubated for 1 hour at room temperature before they were transferred to the hST2-hFc-coated microtiter plates. After incubating for 1 hour at room temperature, the wells were then washed, and plate-bound biotin-hIL-33 was detected with streptavidin conjugated with horse-radish peroxidase (HRP) (Thermo Scientific, Cat # N200), and plate-bound MfIL-33-6His was detected with a HRP conjugated anti-His monoclonal antibody (Qiagen, #34460). All samples were developed with a TMB solution (BD biosciences, #51-2607KC) to produce a colorimetric reaction and then quenched by acidification with 1M sulfuric acid before measuring absorbance at 450 nm on a Victor X5 plate reader. Data analysis was performed using a sigmoidal dose-response model within Prism™ software. […] Percent blockade was calculated as the ratio of the reduction in signal observed in the presence of antibody relative to the difference between the signal with IL-33 alone and background (signal from HRP-conjugated secondary antibody or streptavidin alone). The absorbance measured for the constant concentration of biotin-hIL-33 or MfIL-33-6His alone is defined as 0% blocking and the absorbance measured for no added IL-33 is defined as 100% blocking.
In the case of B1, the “% Maximum blocking” value is reported as 78% and the IC50 is reported as 0.35 nM.
B2 was tested, and the “% Maximum blocking” value was 78% and the IC50 was 0.4 nM.
For B3, the “% Maximum blocking” value was 57% and the IC50 was 0.31 nM.
For B4, the “% Maximum blocking” value was 77% and the IC50 was 1 nM.

The binders below were run against T2, human IL-33 (R&D Systems, #3625-IL-010/CF) (human, UniProt O95760 112-270) (assay: SPR 25C pH7.4, mAb captured).
T2 construct: Commercial recombinant protein; also called hIL-33; interleukin-33
T2 sequence (looked up): T1 sequence (looked up)
Method: (§2) Equilibrium dissociation constants (KD values) for IL-33 binding to purified anti-IL-33 monoclonal antibodies were determined using a real-time surface plasmon resonance biosensor using a Biacore 4000 instrument. The Biacore sensor surface was first derivatized by amine coupling with either a polyclonal rabbit anti-mouse antibody (GE, # BR-1008-38) or with a monoclonal mouse anti-human Fc antibody (GE, # BR-1008-39) to capture anti-IL-33 monoclonal antibodies expressed with mouse or with human IgG4 constant regions, respectively. All Biacore binding studies were performed in 0.01M ADA pH 7.4, 0.15M NaCl, 3 mM EDTA, and 0.05% v/v Surfactant Tween-20 (ABS-ET running buffer). […] Association of either hIL-33 or MfIL-33-6His to the captured monoclonal antibody was monitored for 4 minutes and their dissociation in ABS-ET running buffer was monitored for 10 minutes. The effect of reduced pH on the binding of each anti-IL-33 antibody to either hIL-33 or MfIL-33-6His was studied using an in-line pH chase assay format in 0.01M ADA pH 6.0, 0.15M NaCl, 3 mM EDTA, and 0.05% v/v Surfactant Tween-20 (ABS-ET pH6 buffer). To achieve this, association of either hIL-33 or MfIL-33-6His to the captured monoclonal antibody was monitored for 4 minutes in ABS-ET running buffer. Following a 30 second dissociation of either hIL-33 or MfIL-33-6His in ABS-ET running buffer, ABS-ET pH6 buffer was injected for 3 minutes, and the analyte dissociation under the low-pH conditions was measured. All the binding kinetic experiments were performed at both 25° C. and 37° C. Kinetic association (kₐ) and dissociation (kd) constants were determined by fitting the real-time sensorgrams to a 1:1 binding model using Scrubber 2.0c curve fitting software. Binding dissociation equilibrium constants (KD) and dissociative half-lives (t½) were calculated from the kinetic rate constants as: […]
B1 was tested, and the Kd was 0.26 nM, the koff was 0.000237 s⁻¹ and the kon was 912000 M⁻¹ s⁻¹. It also gave a t½ of 49 min.
B2 showed a Kd of 0.327 nM, a koff of 0.000172 s⁻¹ and a kon of 526000 M⁻¹ s⁻¹. It also gave a t½ of 67 min.
With B3 the Kd was 0.322 nM, the koff was 0.000224 s⁻¹ and the kon was 696000 M⁻¹ s⁻¹. The t½ was 52 min.
Work on B4 yielded a Kd of 0.308 nM, a koff of 0.00025 s⁻¹ and a kon of 811000 M⁻¹ s⁻¹. For the same binder, the t½ was 46 min.

Target: T3, cynomolgus monkey IL-33 expressed with a C-terminal hexahistidine tag (cynomolgus monkey)
T3 construct: also called MfIL-33-6His; Mf-IL-33-6His
T3 chain: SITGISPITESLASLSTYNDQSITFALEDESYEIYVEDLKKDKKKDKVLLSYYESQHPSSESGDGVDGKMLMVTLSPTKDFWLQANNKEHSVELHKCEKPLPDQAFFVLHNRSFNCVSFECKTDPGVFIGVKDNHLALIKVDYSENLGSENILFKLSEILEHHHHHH
Assay: SPR 25C pH7.4, mAb captured
Method: as §2
B1 gave a Kd of 3.06 nM, a koff of 0.00137 s⁻¹ and a kon of 450000 M⁻¹ s⁻¹. The t½ was 8 min.
With B2 the Kd was 1.5 nM, the koff was 0.000486 s⁻¹ and the kon was 325000 M⁻¹ s⁻¹. For the same binder, the t½ was 24 min.
For B3, the Kd was 3.49 nM, the koff was 0.00149 s⁻¹ and the kon was 426000 M⁻¹ s⁻¹. It also gave a t½ of 8 min.
B4 was tested, and the Kd was 1.25 nM, the koff was 0.000442 s⁻¹ and the kon was 353000 M⁻¹ s⁻¹. The t½ was 26 min.

The binders below were run against T2, human IL-33 (R&D Systems, …) (assay: SPR 25C, pH6.0 chase, mAb captured).
Method: as §2
For B1, the koff was 0.000657 s⁻¹, the t½ was 18 min and the “t½ Ratio (pH 7.4/pH 6.0)” value was 2.8.
B2 was tested, and the koff was 0.000664 s⁻¹, the t½ was 17 min and the “t½ Ratio (pH 7.4/pH 6.0)” value was 3.9.
B3 was tested, and the koff was 0.000708 s⁻¹, the t½ was 16 min and the “t½ Ratio (pH 7.4/pH 6.0)” value was 3.2.
With B4 the koff was 0.000826 s⁻¹, the t½ was 14 min and the “t½ Ratio (pH 7.4/pH 6.0)” value was 3.3.

Target: T3, cynomolgus monkey IL-33 expressed with …
Assay: SPR 25C, pH6.0 chase, mAb captured
Method: as §2
For B1, the koff was 0.000501 s⁻¹, the t½ was 23 min and the “t½ Ratio (pH 7.4/pH 6.0)” value was 0.4.
For B2, the koff was 0.000123 s⁻¹, the t½ was 94 min and the “t½ Ratio (pH 7.4/pH 6.0)” value was 0.3.
In the case of B3, the koff is reported as 0.00108 s⁻¹, the t½ is reported as 11 min and the “t½ Ratio (pH 7.4/pH 6.0)” value is reported as 0.7.
With B4 the koff was 0.000117 s⁻¹, the t½ was 99 min and the “t½ Ratio (pH 7.4/pH 6.0)” value was 0.3.

Target: T3, cynomolgus monkey IL-33 expressed with …
Assay: competition ELISA, 150 pM MfIL-33-6His on coated hST2-hFc
Method: as §1
In the case of B1, the “% Maximum blocking” value is reported as 73% and the IC50 is reported as 3.5 nM.
In the case of B2, the “% Maximum blocking” value is reported as 92% and the IC50 is reported as 0.6 nM.
B3 was tested, and the “% Maximum blocking” value was 68% and the IC50 was 4.2 nM.
For B4, the “% Maximum blocking” value was 87% and the IC50 was 0.86 nM.

What follows are binders tested against T2, human IL-33 (R&D Systems, …) (assay: SPR 37C pH7.4, mAb captured).
Method: as §2
In the case of B1, the Kd is reported as 0.498 nM, the koff is reported as 0.000573 s⁻¹ and the kon is reported as 1.15e+06 M⁻¹ s⁻¹. It also gave a t½ of 20 min.
With B2 the Kd was 0.57 nM, the koff was 0.000403 s⁻¹ and the kon was 707000 M⁻¹ s⁻¹. For the same binder, the t½ was 29 min.
Work on B3 yielded a Kd of 0.596 nM, a koff of 0.000479 s⁻¹ and a kon of 803000 M⁻¹ s⁻¹. It also gave a t½ of 24 min.
For B4, the Kd was 0.443 nM, the koff was 0.00062 s⁻¹ and the kon was 1.4e+06 M⁻¹ s⁻¹. For the same binder, the t½ was 19 min.

Target: T3, cynomolgus monkey IL-33 expressed with …
Assay: SPR 37C pH7.4, mAb captured
Method: as §2
Work on B1 yielded a Kd of 5.38 nM, a koff of 0.00436 s⁻¹ and a kon of 810000 M⁻¹ s⁻¹. For the same binder, the t½ was 2.6 min.
B2 showed a Kd of 3.11 nM, a koff of 0.00186 s⁻¹ and a kon of 598000 M⁻¹ s⁻¹. For the same binder, the t½ was 6 min.
B3 was tested, and the Kd was 6.53 nM, the koff was 0.00444 s⁻¹ and the kon was 680000 M⁻¹ s⁻¹. For the same binder, the t½ was 2.6 min.
B4 was tested, and the Kd was 2.24 nM, the koff was 0.00158 s⁻¹ and the kon was 707000 M⁻¹ s⁻¹. For the same binder, the t½ was 7 min.
